In patent US20170183403A1:
Where two headings read alike, the source gives them in different places.

Legend:
[1] = molecular target: T1, Reference peptide no. 10; experiment: peptide microarray (RepliTope)
T1 sequence (peptide): INNYKNPKLTRMLTF

[2] = molecular target: T2, Reference peptide no. 11; experiment: peptide microarray (RepliTope)
T2 sequence (peptide): YKNPKLTRMLTFKFY

[3] = molecular target: T3, Reference peptide no. 12; experiment: peptide microarray (RepliTope)
T3 sequence (peptide): PKLTRMLTFKFYMPK

[4] = molecular target: T4, Reference peptide no. 13; experiment: peptide microarray (RepliTope)
T4 sequence (peptide): TRMLTFKFYMPKKAT

[5] = molecular target: T5, Reference peptide no. 22; experiment: peptide microarray (RepliTope)
T5 sequence (peptide): KPLEEVLNLAQSKNF

[6] = molecular target: T6, Reference peptide no. 23; experiment: peptide microarray (RepliTope)
T6 sequence (peptide): EEVLNLAQSKNFHLR

[7] = molecular target: T7, Reference peptide no. 24; experiment: peptide microarray (RepliTope)
T7 sequence (peptide): LNLAQSKNFHLRPRD

[8] = molecular target: T8, Reference peptide no. 25; experiment: peptide microarray (RepliTope)
T8 sequence (peptide): AQSKNFHLRPRDLIS

[9] = molecular target: T9, Reference peptide no. 26; experiment: peptide microarray (RepliTope)
T9 sequence (peptide): KNFHLRPRDLISNIN

[10] = molecular target: T1, Reference peptide no. 10; experiment: peptide microarray (RepliTope), Ala mutagenesis set
[11] = molecular target: T2, Reference peptide no. 11; experiment: as above
[12] = molecular target: T3, Reference peptide no. 12; experiment: as above
[13] = molecular target: T4, Reference peptide no. 13; experiment: as above
[14] = molecular target: T10, Reference peptide no. 42; experiment: as above
T10 sequence (peptide): INNYKNPKLTRMLTA

[15] = molecular target: T11, Reference peptide no. 43; experiment: as above
T11 sequence (peptide): YKNPKLTRMLTAKFY

[16] = molecular target: T12, Reference peptide no. 44; experiment: as above
T12 sequence (peptide): PKLTRMLTAKFYMPK

[17] = molecular target: T13, Reference peptide no. 45; experiment: as above
T13 sequence (peptide): TRMLTAKFYMPKKAT

[18] = molecular target: T14, Reference peptide no. 47; experiment: as above
T14 sequence (peptide): YKNPKLTRMLTFKFA

[19] = molecular target: T15, Reference peptide no. 48; experiment: as above
T15 sequence (peptide): PKLTRMLTFKFAMPK

[20] = molecular target: T16, Reference peptide no. 49; experiment: as above
T16 sequence (peptide): TRMLTFKFAMPKKAT

[21] = molecular target: T17, Reference peptide no. 52; experiment: as above
T17 sequence (peptide): YKNPKLTRMLTAKFA

[22] = molecular target: Reference peptide no. 53; experiment: as above
[23] = molecular target: Reference peptide no. 54; experiment: as above
[24] = molecular target: murine IL-2 (mouse) (UniProt P04351); experiment: SPR, MAB602 amine-coupled on chip, mIL-2 at 1 nM or more
Sequence of murine IL-2 (mouse) (P04351 21-169 limits assumed): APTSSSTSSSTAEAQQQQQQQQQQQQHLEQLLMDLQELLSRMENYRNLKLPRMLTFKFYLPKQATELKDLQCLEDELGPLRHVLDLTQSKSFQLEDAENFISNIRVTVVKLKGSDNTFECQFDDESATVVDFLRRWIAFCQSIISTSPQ

[25] = molecular target: human interleukin-2 (human) (UniProt P60568); experiment: SPR, antibody amine-coupled on GLM chip, hIL-2 in solution
Sequence of human interleukin-2 (human) (P60568 21-153 limits assumed): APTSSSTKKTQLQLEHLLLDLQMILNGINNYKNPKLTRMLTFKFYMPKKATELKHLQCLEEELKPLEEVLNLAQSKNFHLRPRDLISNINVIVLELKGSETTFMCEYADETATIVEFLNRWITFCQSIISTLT

[26] = molecular target: human interleukin-2 (human) (UniProt P60568); experiment: sandwich ELISA, biotinylated MAB602 on hIL-2 captured by coated 5344, no competitor
[27] = molecular target: Reference peptide no. 53; experiment: peptide microarray (RepliTope), Ala mutagenesis set; remark: listed apart in the source
[28] = molecular target: Reference peptide no. 54; experiment: as above; remark: listed apart in the source

B1: MAB602 (antibody, from another filing, IgG2a, V domains shown)
VH: EVQLQESGPGLVAPSQSLSITCTVSGFSLTNYDISWIRQPPGKGLEWLGVIWTGGGTNYNSGFMSRLSITKDNSKSQVFLKMNSLQTDDTAIYYCVRQGRTPYWGQGTLVTVSA
VL: DIQVTQSPSSLSVSLGDRVTITCKASKDIYNRLAWYQQKPGNAPRLLISGATSLETGVPSRFSGSGSGKDYTLTITSLQTEDVATYYCQQFWGTPYTFGGGTKLEIKR
- signal intensity after subtraction of control signal [1]: 46000 AU
- signal intensity after subtraction of control signal [2]: 49700 AU
- signal intensity after subtraction of control signal [3]: 28800 AU
- signal intensity after subtraction of control signal [4]: 5250 AU
- signal intensity after subtraction of control signal [5]: 5000 AU
- signal intensity after subtraction of control signal [6]: 13300 AU
- signal intensity after subtraction of control signal [7]: 3290 AU
- signal intensity after subtraction of control signal [8]: 5220 AU
- signal intensity after subtraction of control signal [9]: 7510 AU
- signal intensity after subtraction of control signal [10]: 46000 AU
- signal intensity after subtraction of control signal [11]: 49700 AU
- signal intensity after subtraction of control signal [12]: 28800 AU
- signal intensity after subtraction of control signal [13]: 5250 AU
- signal intensity after subtraction of control signal [14]: 246 AU
- signal intensity after subtraction of control signal [15]: 42800 AU
- signal intensity after subtraction of control signal [16]: 5030 AU
- signal intensity after subtraction of control signal [17]: 0 AU
- signal intensity after subtraction of control signal [18]: 21400 AU
- signal intensity after subtraction of control signal [19]: 13400 AU
- signal intensity after subtraction of control signal [20]: 3020 AU
- signal intensity after subtraction of control signal [21]: 13100 AU
- signal intensity after subtraction of control signal [22]: 0 AU
- signal intensity after subtraction of control signal [23]: 0 AU
- response units (RU) [24]: > 10 RU
- Kd [25]: 9.7 nM
- koff [25]: 0.000494 s⁻¹
- absorbance (OD450) [26]: 1.1 OD450

B2: NARA1 (antibody, mouse IgG2a, kappa)
heavy: QVQLQQSGAELVRPGTSVKVSCKASGYAFTNYLIEWVKQRPGQGLEWIGVINPGSGGTNYNEKFKGKATLTADKSSSTAYMQLSSLTSDDSAVYFCARWRGDGYYAYFDVWGAGTTVTVSSAKTTAPSVYPLAPVCGDTTGSSVTLGCLVKGYFPEPVTLTWNSGSLSSGVHTFPAVLQSDLYTLSSSVTVTSSTWPSQSITCNVAHPASSTKVDKKIEPRGPTIKPCPPCKCPAPNLLGGPSVFIFPPKIKDVLMISLSPIVTCVVVDVSEDDPDVQISWFVNNVEVHTAQTQTHREDYNSTLRVVSALPIQHQDWMSGKEFKCKVNNKDLPAPIERTISKPKGSVRAPQVYVLPPPEEEMTKKQVTLTCMVTDFMPEDIYVEWTNNGKTELNYKNTEPVLDSDGSYFMYSKLRVEKKNWVERNSYSCSVVHEGLHNHHTTKSFSRTPGK
light: not shown
- signal intensity after subtraction of control signal [27]: 24 AU
- signal intensity after subtraction of control signal [28]: 0 AU
